From patent US20150344570A1 (published 2015)
Changes are numbered by the printed parent chain. Numbers in names are those of the source.

B1: GpH7-A5/GpH7-HA6/GpL16-k0 (antibody, human IgG1, kappa)
heavy 1: not shown
heavy 2: QVQLVQSGAEVKKPGASVTVSCKASGYTFTDYEMHWIRQPPGEGLEWIGAIDPKTGDTAYSESFQDRVTLTADKSTSTAYMELSSLTSEDTAVYYCTRFYSYTYWGQGTLVTVSSASTKGPSVFPLAPSSKSTSGGTAALGCLVKDYFPEPVTVSWNSGALTSGVHTFPAVLQSSGLYSLSSVVTVPSSSLGTQTYICNVNHKPSNTKVDKKVEPKSCDKTHTCPPCPAPELLWGPSVFLFPPKPKDTLMISRTPEVTCVVVDVSHEDPEVKFNWYVDGVEVHNAKTKPREEQYNSTYRVVSVLTVLHQDWLNGKEYKCKVSNKALRAPIEKTISKAKGQPREPQVYTLPPSRDELTKNQVSLTCLVKGFYPSDIAVEWESNGQPENNYKTTPPVLDSDGSFFLYSKLTVDKSRWQQGNVFSCSVMHEALHNHYTQESLSLSP
light: DIVMTQSPLSLPVTPGEPASISCQASESLVHSNRNTYLHWYLQKPGQSPQLLIYKVSNRFSGVPDRFSGSGSGTDFTLKISRVEAEDVGVYYCSQNTHVPPTFGQGTKVEIERTVAAPSVFIFPPSDEQLKSGTASVVCLLNNFYPREAKVQWKVDNALQSGNSQESVTEQDSKDSTYSLSSTLTLSKADYEKHKVYACEVTHQGLSSPVTKSFNRGEC
notes: Anti-glypican-3 IgG1 heterodimer; G236W and P329R in H2
B2: GpH7-A53/GpH7-B78/GpL16-k0 (antibody, human IgG1, kappa)
heavy 1: B1 heavy 2 with W234G, S237D, R327P, D354K, H433R, E437K
heavy 2: B1 heavy 2 with W234G, S237D, R327P, A328L, I330E
light: B1 light
notes: S239D in one H chain, S239D/A330L/I332E in the other
B3: GpH7-TA7/GpH7-B78/GpL16-k0 (antibody, human IgG1, kappa)
heavy 1: B1 heavy 2 with L232Y, S296A, R327P, D354K, H433R, E437K
heavy 2: B1 heavy 2 with W234G, S237D, R327P, A328L, I330E
light: B1 light
notes: L234Y/G236W/S298A in one H chain, S239D/A330L/I332E in the other
B4: GpH7-A5/GpH7-HA15/GpL16-k0 (antibody, human IgG1, kappa)
heavy 1: not shown
heavy 2: B1 heavy 2 with W234G, A328L
light: B1 light
notes: Anti-glypican-3 IgG1 heterodimer; A330L and P329R in H2
B5: GpH7-A48/GpH7-B3-22-10E/GpL16-k0 (antibody, human IgG1, kappa)
heavy 1: B1 heavy 2 with W234G, D354K, H433R, E437K
heavy 2: not shown
light: B1 light
notes: Anti-glypican-3 IgG1 heterodimer; P329R in H1, I332E in H2
B6: GpH7-A48/GpH7-B3-03-20W/GpL16-k0 (antibody, human IgG1, kappa)
heavy 1: B1 heavy 2 with W234G, D354K, H433R, E437K
heavy 2: not shown
light: B1 light
notes: Anti-glypican-3 IgG1 heterodimer; P329R in H1, G236W in H2
B7: GpH7-A48/GpH7-B3-01-15Y/GpL16-k0 (antibody, human IgG1, kappa)
heavy 1: B1 heavy 2 with W234G, D354K, H433R, E437K
heavy 2: not shown
light: B1 light
notes: Anti-glypican-3 IgG1 heterodimer; P329R in H1, L234Y in H2
B8: GpH7-A5/GpH7-HA11/GpL16-k0 (antibody, human IgG1, kappa)
heavy 1: not shown
heavy 2: B1 heavy 2 with W234G, S296A
light: B1 light
notes: Anti-glypican-3 IgG1 heterodimer; S298A and P329R in H2
B9: GpH7-A48/GpH7-B3-15-02A/GpL16-k0 (antibody, human IgG1, kappa)
heavy 1: B1 heavy 2 with W234G, D354K, H433R, E437K
heavy 2: not shown
light: B1 light
notes: Anti-glypican-3 IgG1 heterodimer; P329R in H1, S298A in H2
B10: GpH7-A5/GpH7-HA18/GpL16-k0 (antibody, human IgG1, kappa)
heavy 1: not shown
heavy 2: B1 heavy 2 with W234G, I330E
light: B1 light
notes: Anti-glypican-3 IgG1 heterodimer; I332E and P329R in H2
B11: GpH7-A48/GpH7-B3-06-09D/GpL16-k0 (antibody, human IgG1, kappa)
heavy 1: B1 heavy 2 with W234G, D354K, H433R, E437K
heavy 2: not shown
light: B1 light
notes: Anti-glypican-3 IgG1 heterodimer; P329R in H1, S239D in H2
B12: GpH7-A48/GpH7-B3-20-08L/GpL16-k0 (antibody, human IgG1, kappa)
heavy 1: B1 heavy 2 with W234G, D354K, H433R, E437K
heavy 2: not shown
light: B1 light
notes: Anti-glypican-3 IgG1 heterodimer; P329R in H1, A330L in H2

Columns and labels:
[1] = target: T1, FcγRIIIa (human, UniProt P08637 17-208); experiment: SPR (Biacore), antibody captured on antigen-peptide chip, FcγR as analyte; relative binding amount
T1 construct: extracellular domain; also called FcgRIIIa; CD16A; not shown: His tag attached to the C terminus
Description: The expression vectors for the respective H chains were combined in a way that each of the alterations L234Y, G236W, S298A, S239D, A330L, and I332E is present in the same H chain as P329R or in the different H chain from P329R, and the expression vector GpL16-k0 for the L chain was combined with them. Antibodies of interest were expressed and prepared according to the method described in Reference Example 1. The prepared antibodies were used to assay the FcγRIIIa-binding activity. The result of assessment using P329R on the direction of FcγRIIIa recognition by L234Y, G236W, S298A, S239D, A330L, and I332E is summarized in Table 12.
Analysis of interaction between objective antibody and the FcγR was carried out using Biacore T100 (GE Healthcare). HBS-EP+ (GE Healthcare) was used as the running buffer, and the measurement temperature was set to 25° C. Chips produced by immobilizing the antigen peptide by the amine coupling method to a Series S Sencor Chip CM5 (GE Healthcare), or alternatively, chips produced by allowing preliminarily biotinylated antigen peptides to interact with and immobilize onto a Series S Sensor Chip SA (certified) (GE Healthcare) were used. Antibodies of interest were captured onto an antigen peptide-immobilized chip, and allowed to interact to each FcγR diluted with running buffer. To regenerate and repeatedly use the chip, the antibodies captured on the chip were washed off by reacting 10 mM glycine-HCl, pH 1.5.

[2] = target: FcγRIIIa F (human, UniProt P08637 17-208); experiment: SPR (Biacore), KD
Chain of FcγRIIIa F (P08637 17-208): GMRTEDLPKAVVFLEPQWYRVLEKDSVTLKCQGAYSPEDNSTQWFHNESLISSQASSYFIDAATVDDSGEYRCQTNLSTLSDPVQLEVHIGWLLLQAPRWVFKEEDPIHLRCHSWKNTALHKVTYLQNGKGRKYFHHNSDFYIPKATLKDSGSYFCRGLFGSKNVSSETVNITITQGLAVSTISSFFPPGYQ

T1 sequence (P08637 17-208): as above

Binder | FcγRIIIa BINDING ACTIVITY (relative) [1] | other results
B1 | 56 relative, GpH7-A5/GpH7-B3/GpL16-k0 = 100 | –
B2 | – | fold decrease of FcγRIIIa-binding activity against GpH7-A57/GpH7-B78/GpL16-k0 [2]: 1.8 times
B3 | – | fold FcγRIIIa binding against GpH7-A5/GpH7-B78/GpL16-k0 [2]: ≥ 10 times
B4 | 32 relative, GpH7-A5/GpH7-B3/GpL16-k0 = 100 | –
B5 | 189 relative, GpH7-A5/GpH7-B3/GpL16-k0 = 100 | –
B6 | 13 relative, GpH7-A5/GpH7-B3/GpL16-k0 = 100 | –
B7 | 11 relative, GpH7-A5/GpH7-B3/GpL16-k0 = 100 | –
B8 | 84 relative, GpH7-A5/GpH7-B3/GpL16-k0 = 100 | –
B9 | 47 relative, GpH7-A5/GpH7-B3/GpL16-k0 = 100 | –
B10 | 35 relative, GpH7-A5/GpH7-B3/GpL16-k0 = 100 | –
B11 | 123 relative, GpH7-A5/GpH7-B3/GpL16-k0 = 100 | –
B12 | 60 relative, GpH7-A5/GpH7-B3/GpL16-k0 = 100 | –
